Values of other authors, collected in patent US6268341A, “Expression of urokinase plasminogen activator inhibitors” (Chiron Corporation, priority 1998, dated 2001).
Where no end group is shown, it is not given here. Fuc = fucose (fucosylation)

Legend:
[1] = biological target: uPAR (Homo sapiens, UniProt Q03405); settings: Appella et al., J Biol Chem 1987
[2] = system: osteosarcoma cell line, SaOS-2; settings: Rabbani et al.

Chain of uPAR (Q03405 23-335): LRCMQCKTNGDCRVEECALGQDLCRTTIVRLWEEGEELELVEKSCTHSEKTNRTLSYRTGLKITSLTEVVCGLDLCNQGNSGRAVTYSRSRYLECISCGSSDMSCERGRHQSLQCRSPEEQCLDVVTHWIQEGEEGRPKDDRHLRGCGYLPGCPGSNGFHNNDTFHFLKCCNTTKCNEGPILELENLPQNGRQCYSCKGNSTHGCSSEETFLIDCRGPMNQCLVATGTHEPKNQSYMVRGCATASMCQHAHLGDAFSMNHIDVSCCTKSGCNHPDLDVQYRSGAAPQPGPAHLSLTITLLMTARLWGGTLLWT

Substance | affinity relative to intact ATF (fold less) [1] | mitogenic activity [2]
uPA12-32: critical receptor-binding domain alone, residues 12-32 of uPA (DCLNGGTCVSNKYFSNIHWCN; UniProt P00749 32-52, looked up, fragment) | about 100 fold | 
fucosylated EGF-like domain: fucosylated EGF-like domain (uPA4-43, produced by cleavage from prouPA) (LHQVPSNCDCLNGGT(Fuc)CVSNKYFSNIHWCNCPKKFGGQHCE; cysteine pairing not given here; UniProt P00749 24-63, looked up, fragment) |  | mitogenic
